Measurements taken from EP4748847A1, “PEPTIDE COMPLEX HAVING VEGFR -2 AGONIST ACTIVITY” (Peptidream Inc, priority 2023, dated 2025).
Where two headings read alike, the source gives them in different places. Bridges are numbered along the chain shown (N, C = ends). Where no end group is shown, it is not given here. [ ]: non-standard residue; d: D form. hTyr = N[C@@H](CCc1ccc(O)cc1)C(=O)O; hPhe = N[C@@H](CCc1ccccc1)C(=O)O; Tle = CC(C)(C)[C@H](N)C(=O)O; 3Py6NH2 = not defined here; 4Py2NH2 = not defined here; F4aao = not defined here; Atb = not defined here; Yph = not defined here

How the values were obtained:
Assay in all cases: cell-based or functional assay
VEGFR-2 [1] = target: T1, VEGFR-2 (human, UniProt P35968 20-1356)
VEGFR-2 [2] = target: T1, VEGFR-2; remark: listed apart in the source
VEGFR-2 [3] = target: T1, VEGFR-2; remark: listed apart in the source

T1 sequence (P35968 20-1356): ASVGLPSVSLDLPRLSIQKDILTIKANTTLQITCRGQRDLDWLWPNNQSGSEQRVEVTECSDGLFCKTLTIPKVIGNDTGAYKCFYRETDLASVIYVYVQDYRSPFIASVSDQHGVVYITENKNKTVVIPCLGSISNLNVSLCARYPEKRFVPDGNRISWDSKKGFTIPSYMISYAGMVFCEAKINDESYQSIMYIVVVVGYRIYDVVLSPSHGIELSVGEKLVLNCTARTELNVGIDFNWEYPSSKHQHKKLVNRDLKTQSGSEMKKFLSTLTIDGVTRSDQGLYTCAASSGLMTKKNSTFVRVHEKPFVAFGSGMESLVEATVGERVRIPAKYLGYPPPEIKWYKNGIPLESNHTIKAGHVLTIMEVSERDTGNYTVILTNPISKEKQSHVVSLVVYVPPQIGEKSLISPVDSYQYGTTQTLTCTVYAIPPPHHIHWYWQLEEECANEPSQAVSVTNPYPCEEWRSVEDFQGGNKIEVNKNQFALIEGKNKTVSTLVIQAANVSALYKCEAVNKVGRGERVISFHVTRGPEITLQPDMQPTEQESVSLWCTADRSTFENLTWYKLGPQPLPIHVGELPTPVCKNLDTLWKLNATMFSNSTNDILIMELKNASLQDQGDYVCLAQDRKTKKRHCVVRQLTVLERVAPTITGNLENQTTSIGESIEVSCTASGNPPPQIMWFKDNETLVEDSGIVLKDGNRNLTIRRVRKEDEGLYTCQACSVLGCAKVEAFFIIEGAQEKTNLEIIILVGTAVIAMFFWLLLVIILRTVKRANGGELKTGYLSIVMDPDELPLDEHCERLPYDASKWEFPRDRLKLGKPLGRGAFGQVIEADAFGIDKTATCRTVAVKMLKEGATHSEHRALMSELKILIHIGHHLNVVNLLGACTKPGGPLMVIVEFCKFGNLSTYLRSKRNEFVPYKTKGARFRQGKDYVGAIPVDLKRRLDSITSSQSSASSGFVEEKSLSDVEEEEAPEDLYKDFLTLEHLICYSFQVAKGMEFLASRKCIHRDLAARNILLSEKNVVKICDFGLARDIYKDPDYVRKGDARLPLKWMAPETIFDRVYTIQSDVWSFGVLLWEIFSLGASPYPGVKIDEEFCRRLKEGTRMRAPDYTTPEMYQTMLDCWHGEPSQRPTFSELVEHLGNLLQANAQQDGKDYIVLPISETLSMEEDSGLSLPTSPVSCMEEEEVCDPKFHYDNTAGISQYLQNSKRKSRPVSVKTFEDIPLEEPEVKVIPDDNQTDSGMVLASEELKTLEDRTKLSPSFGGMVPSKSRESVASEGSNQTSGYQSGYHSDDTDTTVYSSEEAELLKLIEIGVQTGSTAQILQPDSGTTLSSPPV

Binder	pERK Assay Results (AlphaLISA p-Erk1/2, HUVEC) (VEGFR-2 [1])	proliferation (HUVEC, CellTiter-Glo) (VEGFR-2 [2])	pERK Assay Results (AlphaLISA p-Erk1/2, HUVEC) (VEGFR-2 [3])
{CH2CO}-[W7N]W[Tle]DVKDDLYF[hTyr]DCG-NH2 (thioether N-14; also: homodimer: Lys6 joined to Lys6 of second copy by cPEG17c (Linker Structure No. 4)) [Peptide complex Dimer Structure No. 46]	≥ 50 % activity at 20 nM	≥ 50 % activity at 1.25 nM	
{CH2CO}-WW[Tle]DVKDD[Atb]Y[F4G][hTyr]DCG-NH2 (thioether N-14; reading uncertain; also: dimer: Lys6 joined to Lys6 of second copy by OCOPEG17OCO (Linker Structure No. 6)) [Peptide complex Dimer Structure No. 53]	≥ 50 % activity at 5 nM	≥ 50 % activity at 5 nM	
{CH2CO}-WWVDVKDDLY[F4G]VDCG-NH2 (thioether N-14; not fully specified (residue 6); also: homodimer: Lys6 joined to Lys6 of second copy by cPEG17c (Linker Structure No. 4)) [Peptide complex Dimer Structure No. 17]			≥ 50 % activity at 100 nM
{CH2CO}-WW[Tle]D[alT]KDDLYF[hTyr]DCG-NH2 (thioether N-14; not fully specified (residue 6); also: homodimer: Lys6 joined to Lys6 of second copy by cPEG17c (Linker Structure No. 4)) [Peptide complex Dimer Structure No. 27]	≥ 50 % activity at 10 nM	≥ 50 % activity at 10 nM	
{CH2CO}-WWVDVKDDLYF[hTyr]DCG-NH2 (thioether N-14; not fully specified (residue 6); also: homodimer: Lys6 joined to Lys6 of second copy by cPEG17c (Linker Structure No. 4)) [Peptide complex Dimer Structure No. 18]			≥ 50 % activity at 100 nM
{CH2CO}-WW[Tle]DVKDDLY[F4G]VDCG-NH2 (thioether N-14; also: homodimer: Lys6 joined to Lys6 of second copy by OCOPEG17OCO (Linker Structure No. 6)) [Peptide complex Dimer Structure No. 51]	≥ 50 % activity at 5 nM	≥ 50 % activity at 5 nM	
{CH2CO}-[3Py6NH2]W[Tle]DVKDDLYF[hTyr]DCG-NH2 (thioether N-14; not fully specified (residue 6); reading uncertain; also: homodimer: Lys6 joined to Lys6 of second copy by cPEG17c (Linker Structure No. 4)) [Peptide complex Dimer Structure No. 23]			≥ 50 % activity at 10 nM
{CH2CO}-WWVDVQDDLYFVDCG (thioether N-14; also: dimer: Gly15 C-terminus joined to second copy by K-cPEG17c-K) [Peptide complex Dimer Structure No. 12]			< 50 % activity at 100 nM
{CH2CO}-[4Py2NH2]W[Tle]DVKDDLYF[hTyr]DCG-NH2 (thioether N-14; not fully specified (residue 6); reading uncertain; also: homodimer: Lys6 joined to Lys6 of second copy by cPEG17c (Linker Structure No. 4)) [Peptide complex Dimer Structure No. 22]			≥ 50 % activity at 10 nM
{CH2CO}-WWVDV[F4COO]DDLYFVDCG (thioether N-14; also: dimer: C-termini joined by PEG12c-K-PEG12c linker) [Peptide complex Dimer Structure No. 6]			≥ 50 % activity at 100 nM
{CH2CO}-WW[Tle]DVKDDLY[Yph]VDCG-NH2 (thioether N-14; not fully specified (residue 6); reading uncertain; also: homodimer: Lys6 joined to Lys6 of second copy by cPEG17c (Linker Structure No. 4)) [Peptide complex Dimer Structure No. 19]			≥ 50 % activity at 100 nM
{CH2CO}-WW[Tle]DVKDD[Atb]YF[hTyr]DCG-NH2 (thioether N-14; reading uncertain; also: homodimer: Lys6 joined to Lys6 of second copy by OCOPEG17OCO (Linker Structure No. 6)) [Peptide complex Dimer Structure No. 52]	≥ 50 % activity at 5 nM	≥ 50 % activity at 5 nM	
{CH2CO}-WW[Tle]DVKDDLY[F4G][hTyr]DCG-NH2 (thioether N-14; also: homodimer: Lys6 joined to Lys6 of second copy by cPEG17c (Linker Structure No. 4)) [Peptide complex Dimer Structure No. 45]	≥ 50 % activity at 20 nM	≥ 50 % activity at 5 nM	
{CH2CO}-WWVDVQDDLYFVSCG (thioether N-14; also: dimer: Gly15 C-terminus joined to second copy by PEG12c-K-PEG12c) [Peptide complex Dimer Structure No. 11]			< 50 % activity at 100 nM
{CH2CO}-WW[Tle]DVKDD[Atb]YF[hTyr]DCG-NH2 (thioether N-14; reading uncertain; also: homodimer: Lys6 joined to Lys6 of second copy by OCOPEG13OCO (Linker Structure No. 5)) [Peptide complex Dimer Structure No. 49]	≥ 50 % activity at 20 nM	≥ 50 % activity at 5 nM	
{CH2CO}-WW[Tle]DVKDDLY[Yph][hTyr]DCG-NH2 (thioether N-14; not fully specified (residue 6); reading uncertain; also: homodimer: Lys6 joined to Lys6 of second copy by cPEG17c (Linker Structure No. 4)) [Peptide complex Dimer Structure No. 20]			≥ 50 % activity at 10 nM
{CH2CO}-WWVDVKDDLY[Yph]VDCG-NH2 (thioether N-14; not fully specified (residue 6); reading uncertain; also: homodimer: Lys6 joined to Lys6 of second copy by cPEG17c (Linker Structure No. 4)) [Peptide complex Dimer Structure No. 16]			≥ 50 % activity at 100 nM
{CH2CO}-WWVDVQGDLYFVDCG (thioether N-14; also: dimer: C-termini joined by PEG12c-K-PEG12c linker) [Peptide complex Dimer Structure No. 7]			≥ 50 % activity at 100 nM
{CH2CO}-WWVDVQDDLYF[hPhe]DCG (thioether N-14; also: dimer: C-termini joined by PEG12c-K-PEG12c linker) [Peptide complex Dimer Structure No. 9]			< 50 % activity at 100 nM
{CH2CO}-WWVD[Tle]KDDLYFVDCG-NH2 (thioether N-14; not fully specified (residue 6); also: homodimer: Lys6 joined to Lys6 of second copy by cPEG17c (Linker Structure No. 4)) [Peptide complex Dimer Structure No. 15]			≥ 50 % activity at 100 nM
{CH2CO}-[F4aao]W[Tle]DVKDDLYF[hTyr]DCG-NH2 (thioether N-14; not fully specified (residue 6); reading uncertain; also: homodimer: Lys6 joined to Lys6 of second copy by cPEG17c (Linker Structure No. 4)) [Peptide complex Dimer Structure No. 24]			≥ 50 % activity at 10 nM
{CH2CO}-WW[Tle]DVKDDLY[F4G]VDCG-NH2 (thioether N-14; also: homodimer: Lys6 joined to Lys6 of second copy by cPEG17c (Linker Structure No. 4)) [Peptide complex Dimer Structure No. 43]	≥ 50 % activity at 5 nM	≥ 50 % activity at 5 nM	
{CH2CO}-WWVDVQDDLYFVACG (thioether N-14; also: dimer: Gly15 C-terminus joined to second copy by PEG12c-K-PEG12c) [Peptide complex Dimer Structure No. 10]			< 50 % activity at 100 nM
{CH2CO}-[Hcit]W[Tle]DVKDDLYF[hTyr]DCG-NH2 (thioether N-14; not fully specified (residue 6); also: homodimer: Lys6 joined to Lys6 of second copy by cPEG17c (Linker Structure No. 4)) [Peptide complex Dimer Structure No. 21]			≥ 50 % activity at 10 nM
{CH2CO}-WW[Tle]DVKNDLYF[hTyr]DCG-NH2 (thioether N-14; also: homodimer: Lys6 joined to Lys6 of second copy by cPEG17c (Linker Structure No. 4)) [Peptide complex Dimer Structure No. 47]	≥ 50 % activity at 20 nM	≥ 50 % activity at 1.25 nM	
{CH2CO}-WWVDV[hPhe]DDLYFVDCG (thioether N-14; also: dimer: C-terminus joined to second copy by PEG12c-K-PEG12c) [Peptide complex Dimer Structure No. 4]			≥ 50 % activity at 10 nM
{CH2CO}-WWVDVQDDLY[Bph]VDCG (thioether N-14; also: dimer: C-termini joined by PEG12c-K-PEG12c linker) [Peptide complex Dimer Structure No. 8]			< 50 % activity at 100 nM
